Assay: soluble fraction after stress (log2 fold change); higher = more stays soluble; pooled small domains, quantitative proteomics
Conditions: stress: 50 degC
Procedure, shortened: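 Pooled custom libraries of small protein domains were each held under stress at 50°C. The read-out, high-throughput quantitative proteomics, tracked how much of each protein stayed soluble. This is reported as a base-two log fold change used to indicate aggregation propensity. Higher values mean more protein remains in solution.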

HMPAVTEQTKTNLRRAFWQLYEQKPIQKITVKQITDLAGYNRGTFYLYFKDVYDLLDDIENK
soluble fraction (log2): -0.704

HMDPKWSHVRRLLDDENPIVRKALTEELIRSPEEGLAFLEQVIREPDHLLAKHAHNLLSELGWV
soluble fraction (log2): 0.0264

HMNTPTLLLYGGKDHSVPEAGIRHLRAHLSANDRGEYRFYPNAPHLLLQSRQWQQVSQDISQWLAMT
soluble fraction (log2): 0.141

HMETTVPNVLNHNISTGEILLKENNLNFRIQYIPSNKDEAVGTIINSVPTSGEKVKFGTVVDLKVL
soluble fraction (log2): 0.0465

HMKAGRNTLARQMAILEVLQKDGRALVDDLAARFETTPQTIRKDLSALAEVNQISRFHGGAALVG
soluble fraction (log2): -0.0796

HMAKQQTTTTAHVVTTGETLYSIAQKNGISVEELKKSNNITSDKLRPGQTLHITKVSKTSSTAK
soluble fraction (log2): 0.365

HMSIHPRDKADLGTALSKWKKGALDDKQLELEVARVFMRTYGKKLEGQALNKAVAAWVAALTQSKK
soluble fraction (log2): 0.506

HMDPFVILGISKDSSQSEILEAYKTKRAYYQEHVFDEGDQGAQAARMLGQLDDAYQQAMELSHE
soluble fraction (log2): -0.062

HMGLIAPMPGQIRSVAVSVGDVVKKGQTLLTMEAMKMEIRIQALKDGRVTALHAAQGQTVEGEQILIEVE
soluble fraction (log2): -0.000533

HMINEVVSLRDVPSFIGKAKRDVIRIAEENNLKIKINGNGYVKEQTPNPGNKYKSNQEIKVFLEPG
soluble fraction (log2): 0.0894

HMSAEDYMEMIYRLSQENGFTRVNDLASALNVQPPSVTRMIQKLAELNLIKYEKYGVIMLQPYGIEVGRSL
soluble fraction (log2): -1.91

HMGFSDDEHNALADADLKKALEVTTNKSETQYNIAKLIYSYIISLGDKKPYGDWSYDKALSIIHDA
soluble fraction (log2): 0.0519

HMTTQTTKYVNTTAGLNVRTGPSTSYAKIVTLSYGQSVNVLSTSNGWSKINYNGSTGYVSSQYLQSTKPS
soluble fraction (log2): -0.619

HMTVSADIIQKIIKTSTTDENIITIDSISNSISKLALSKITAEDIIEILEASSLVLRNSNGSWTVL
soluble fraction (log2): -0.617

HMPSLILADEPTGNLDSRNSSEVIALLKNASKRYAQTIIMITHNRSIAQSADRVLQVSDGVLTDMG
soluble fraction (log2): 0.0494

HMEKEKIKEALIGYFEAEPEEKFTVQELADKLKMNKAGQFNFVVQAVAQLEHDKVITLDDEGNFSLVRHE
soluble fraction (log2): -0.623

HMNEKEAEEAAEAQTEVPDVTGMAPAQAKNMLYQAGLSSEYRGEGETVSRQLPPAGETVNRGTKAVLYL
soluble fraction (log2): 0.0278

HMGGEEKALLFGDVDIREAGEITQRLEQAEIPYELRGDGSSIFVPRSRVMEARMMISADGLL
soluble fraction (log2): -0.0992

HMPLLSPRQLDVLSLAAGGLSDAQIAGRLVLSESTVRVHFHHIIEKLGVTDRAGAIAWYEQSRS
soluble fraction (log2): -1.03

HMPANLTPDYFKAEQWYRSASTNEEKMLALEQMLAVMPKHKGTEHLQADLKRKLSQLKDASAQ
soluble fraction (log2): 0.148

HMRKLTDRQRQILDLIKTIIAETGAPPTRAEISTALGFKSANAAQEHLQALAQKGMIDLVSGASRGIRLRG
soluble fraction (log2): -0.379

HMSTINGIEKYLSSGLIPYIGPKTAKRIVEKFGLDTLEIIQYNPERLKEIEGIGDKKLKKIVEAFEEQG
soluble fraction (log2): -0.102

HMDPEARRRAILNAAIDVIVEKGAAALTHRAVAARAGVSLGSTTKYFSSIEDLRENAMDALVREMD
soluble fraction (log2): -0.273

HMANSLLVTAQAGGQKLFNFLKRSLHAENNEIHRWIRTGQVRINKKRTKAFDIVHENDEIRIPPFALNR
soluble fraction (log2): -0.284

HMQLPDLDEIRQMRKRLDLSQRELAALAGVSQSLIAKIEKGSIDPSYDNVRKIFNAFENILKKRALE
soluble fraction (log2): -0.255

HMNSKIIVESIIKSKNGIAKVADLVEGGVSRQSIKKMYADGYIKRISRGYYTLTSEPVSSDEQVISS
soluble fraction (log2): -0.333

HMRLANGIGTVYKLSGNRRNPYIVRKTTGWEIDEESGKAKQKYITIGYAPTRAKGLEMLMDYNKNP
soluble fraction (log2): -0.428

HMGVTDSSYNVLRRQILEMLSVQQRTPADLARLIEADKEEIAAVIRFLLDKGEIQMEDGMLQTK
soluble fraction (log2): 0.0683

HMEPQLVKSFDVQTELTYDQFLSKYPESHTLGRLLVQPEPIPFEPYKNIPGITPEKLLALHAKHLEAR
soluble fraction (log2): 0.0728

HMTQTDINQIETLVHEGNKLAAVKLLMDTAHIGLKEAKDIIDNFFLGKQTDLQAAVAQVQTR
soluble fraction (log2): 0.123

HMKNIRKQAIEAIDRIKNGNPIVISKNAKLIFKNIAKEANVSPTELHREFRDVMLYVNSLKAP
soluble fraction (log2): -0.255

HMANLDSLIKKVGQYAKDKQSISVDGIKKDLSIDKDMVKEALAELLKIGVVDKPDEAGQYKVIM
soluble fraction (log2): 0.299

HMQNNWFYEENGQRKGPVSENEMVQFIKSSVISHGTSVWKQGFPDWLKVENTDLRVHLDNSAP
soluble fraction (log2): 0.136

HMDIASNQIQGIKDSVGGDENYSKMVAWALESLPAEEVKAFNDLTETANAPAIKMAVQGLYSQYNNAM
soluble fraction (log2): 0.264

HMVSVLGRRIKELRLQNSMTQMQLAKKLGYKGNSLVAGWELGKNYPSVSSIKRLSEIFDTDLMKYVG
soluble fraction (log2): -1.65

HMAYRLDVRNQTKGTYLVIQKKYWDKEKKQSRTKHHMSLGYVHDLQKLYSDPITHYKEVINQMNAEEKG
soluble fraction (log2): -1.54

HMNGVFIMHTPDGKVLRTEEGEEAVITLFNWSGQLLWSKTSLGQLPLPEGTQGVLQVQYKSGDQHTIKT
soluble fraction (log2): -0.267

HMRRISLEDWQLIESLIRRDWSPEQISLWLKKYKKIRVSHEWIYQYILKDKSKAGDLHTHLRSR
soluble fraction (log2): -0.174

HMTVPNVVGQRILAAQDILKNLGLKVLVDTNLPNSQWGLRNVKSTNPGAGAVVRVGDTVTLIAR
soluble fraction (log2): 0.0114

HMAAGADEATTVPNVSGDTLNQAIKSLKAEGLGYMLSGAGARVRDQMPEPGAEMTKGSVVMLYMDGDAEVD
soluble fraction (log2): -0.0304

HMRKTIQDFLSSNKVDIAKLLTLALEKTKEDLYKNLSYNLTNKELEKLKLLIKKREQGIPFAYLS
soluble fraction (log2): -0.0368

HMYPNEFPRKVMSVFESSGLEMFRTIEMLLAIPEYETPLPYGSGVSRSDIFVLAKSAGNLVSITV
soluble fraction (log2): 0.00886

HMSESEDFQNRWRPWRSLLDDETPVVREALVDQLKLFPEEGRLFLQQMSEEDDPISARHAFELIKSLGW
soluble fraction (log2): -0.132

HMITNLEPFKDFVRGFSGLHLEGVGQEKLAAALDERIRKTGSANERDYLQLIMEDVAERLKLINILT
soluble fraction (log2): 0.0546

HMRKSAVSSTLTSIEGIGATRAKALLKHFKTVAAVSEADLKELEDAPGMTRPSALRVYEYFHGK
soluble fraction (log2): -0.165

HMNTYVLPDALKSQLSVEDTGMLTKQLQALPETLAEGVLDSLSQMLSKNTLQNPVGWMLAVMKRAREGNFN
soluble fraction (log2): -0.00363

HMPKLVGEVMQTLDALRREKGLSLLLVEQNARAALGVVDRVYVLERGRVVFEGSAKEAMEDQDVMEFYLG
soluble fraction (log2): 0.0385

HMSGALDTVVGIRMLKLLSTPIEKSKAFQVGIINKDGKKLRDPTSGERQHYTFLNRFVFKVQYALMRS
soluble fraction (log2): -0.211

HMETLKINTHLGTLNLKKRGKKGTWQINIYFKNIEGDNHYRQSTGTNQLELAKAKAMNMITTEYSNRLAGI
soluble fraction (log2): -1.69

HMDEKVTIPSVSGLLLSEAKTKLVDAGLTVETVYDDESKEAKDTVLSQSPLQYGKVDKGTVVTLTVSSGKG
soluble fraction (log2): -0.043

HMSGMNSDHRVNGNIHTFLIQHDLGTKWSVFTEQLLKQVFRSFLPDKELNFQTTDSTVILKVSLGSDFNEH
soluble fraction (log2): -0.0505

HMDRMFQPETWSKIYQWVMNDPQVPDKEDVLALIRRHFGNFEKLIKLLHYLDGGKPYAYLSEH
soluble fraction (log2): -0.115

HMNNVDIMGRMVYDDQHREVINFGKYKGVLVTEVLKKDPGYFSWIQQGDFPSDMKRIMMAIKLRM
soluble fraction (log2): -2.3

HMKDKSEKTKKLIFEAAFKIIREEGFSELSANKIAQVASVSKGVIFHHFSQMDDLYLFMLDTL
soluble fraction (log2): 0.255

HMTLGPKQMGEAIIKNLKEKTGKSLEEWSQRILIHELTDKKEIIDFLKNDNGLGHFQALKIFEHLNGK
soluble fraction (log2): -0.02

HMHREITGSLAERNGRYTAILNLYDEDGKRRQKSIALGIPVKGNKRKAQAQLEELKRAYSLGLPQ
soluble fraction (log2): -0.115

HMSGPAEDLLAIEGMDKELAYELAARGIRTRDELADQSLDELEAVPGLDPVRAGQLIMAARAHLFENAGQ
soluble fraction (log2): -0.124

HMALTQEQLGQRLQDARKSVALTQQEVAEDLGLSRESLAQIEAGSRSVNSLEIVRLARLYGRSLSSILLE
soluble fraction (log2): -0.612

HMISVENLSNREFEIFQLIGNGFSTKEMAKKLNLSIYTVESHKKNIKEKLKLKNSSDLSKYAIQWVIMQN
soluble fraction (log2): -0.503

HMLIDQYPYSIIYRLIPHGRSNAVPAAQIVGLTKLDERSIRIYVEAMRREGHIIASSSKGYYFPASIEE
soluble fraction (log2): -2.83

HMSDAPLLSIRSLAVAFDGTRVVDGVSFDVARGEVVALVGESGSGKTVTGLSLLDLVPPPGRRVGGEV
soluble fraction (log2): 0.0423

HMDSVEYRVITGDDVNFRKGPSTDYASLGKLNKGYKVEYISETNSWSKVKYNGQTGYVYSKYVAQT
soluble fraction (log2): 0.0362

HMRKSLGEIVFDRMERAIKSGAYSPDERLPTELDLAAEFEVSRPVIRDALKRLRERGLIYSRQGAGSFVRA
soluble fraction (log2): -0.499

HMSFKQARFMMDAANGKALAWLYSHAEVLDRKDQGENIEIHVMISPADLSRFVNAFGYQPVQS
soluble fraction (log2): -0.2

HMQETMTNDEVISLTKAGLSSSIIIGKIRSSATNFDLSTDSLIKLKQAGVSDETVAAMLEAKS
soluble fraction (log2): 0.0855

HMLSTRERMSSLMAQLQVQQFMPFHRLFTISEGRMGVIVTFLAMMELVKENLIKLIQAQEYGPIHVSLG
soluble fraction (log2): 0.0428

HMKPEQIELTFSGTTAMRLDKFLAENQPGLSRAKLQAIISSGSVEVNGKVITKQAFKLDPGDLVKALIPE
soluble fraction (log2): 0.0295

HMGKIILLFSDDDGVFDTALYRVRNYDGHRFAQSLGNAEMKWRHSEDEYFDFVLTSLREDGYDIEEIE
soluble fraction (log2): -1.22

HMNIVVSSIDSNSFEIVNKETGEQAVISYDKETKKGFVLINGVKKEFFQDGNKVYYDGYVIAE
soluble fraction (log2): 0.227

HMDDGLTRLTPRENEVLELMAQGRSNTAIAERLVLSYGAVEKNVSSIFTKLDLPLDAGDHRRVLAVLRRLN
soluble fraction (log2): -0.688

HMDYEVPEELQQKFEEFPRLKEAFYQLTPGRQHQYLYYFSQAKRSQTRYNRIDKYMNAILQGKGMK
soluble fraction (log2): -0.991

HMSAAPVGPWALSEFLDAVEKDSVERVTFDDAGKALVAVDADGGRHRVEILPSEGPEILAALRKHSVQFA
soluble fraction (log2): 0.0953

HMVDISLSDRELEVLRLLAMGLSNADISRRLYLSEGTIRNYMSGIFSKLNVSDRTQAVVIALREGLVNL
soluble fraction (log2): -0.48

HMTANDKRNALYRKIEVGRRQLPAMDEVAFRQLLAAEFGVESRKDMSVGQLSRLVNILAEKGAVF
soluble fraction (log2): -0.203

HMRRATLERLANNTAEKAIRYKRSLALEPMNPQERRIIHAALQEVEGVSTHSVGTEPNRKVIVVPDGV
soluble fraction (log2): -0.0677

HMNTLSPVRILAILDGRSSMAEWQLAEELGVSIDNLSEILNKMSTDGQIRLVPSEDGRMVVP
soluble fraction (log2): 0.265
